Numbering of substitutions follows the chain as printed.
Columns and labels:
[1] = biological target: T1, FcRL4, overexpressed on 3T3 cells (UniProt Q96PJ5 20-515, limits assumed); assay: phage clone on 3T3-FcRL4 cells
T1 construct: whole, on cells
T1 sequence (looked up): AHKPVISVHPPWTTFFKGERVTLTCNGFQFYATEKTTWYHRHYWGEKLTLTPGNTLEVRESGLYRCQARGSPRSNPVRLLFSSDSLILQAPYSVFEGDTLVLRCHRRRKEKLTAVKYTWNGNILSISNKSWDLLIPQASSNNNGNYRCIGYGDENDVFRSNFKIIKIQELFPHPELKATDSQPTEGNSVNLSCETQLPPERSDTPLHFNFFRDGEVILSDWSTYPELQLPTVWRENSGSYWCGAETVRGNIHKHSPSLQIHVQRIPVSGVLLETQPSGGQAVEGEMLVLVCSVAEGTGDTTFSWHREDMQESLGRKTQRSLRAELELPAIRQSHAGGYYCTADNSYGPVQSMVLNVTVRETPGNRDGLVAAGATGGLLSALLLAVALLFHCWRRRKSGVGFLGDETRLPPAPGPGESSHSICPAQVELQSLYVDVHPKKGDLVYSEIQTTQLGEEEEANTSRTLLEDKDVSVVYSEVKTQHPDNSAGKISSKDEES

[2] = biological target: T2, FcRL6, overexpressed on 3T3 cells (UniProt Q6DN72 20-434, limits assumed); assay: phage clone on 3T3-FcRL6 cells
T2 construct: whole, on cells
T2 sequence (looked up): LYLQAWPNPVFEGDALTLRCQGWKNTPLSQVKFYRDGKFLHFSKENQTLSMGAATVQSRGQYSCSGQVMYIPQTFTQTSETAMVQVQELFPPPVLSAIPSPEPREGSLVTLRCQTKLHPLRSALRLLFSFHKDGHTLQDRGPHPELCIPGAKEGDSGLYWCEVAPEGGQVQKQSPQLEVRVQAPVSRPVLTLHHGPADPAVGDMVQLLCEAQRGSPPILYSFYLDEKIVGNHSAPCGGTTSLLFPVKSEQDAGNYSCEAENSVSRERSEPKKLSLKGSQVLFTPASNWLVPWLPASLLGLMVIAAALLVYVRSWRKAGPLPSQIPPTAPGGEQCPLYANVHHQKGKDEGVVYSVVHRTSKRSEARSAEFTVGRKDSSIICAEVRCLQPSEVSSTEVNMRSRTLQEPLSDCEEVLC

[3] = biological target: T3, Fc Receptor-like 5 (FcRL5), full length, overexpressed on 3T3 or Raji cells (human, UniProt Q96RD9 16-977); assay: phage clone screening on cells
T3 construct: also called 3T3-FcRL5
T3 sequence: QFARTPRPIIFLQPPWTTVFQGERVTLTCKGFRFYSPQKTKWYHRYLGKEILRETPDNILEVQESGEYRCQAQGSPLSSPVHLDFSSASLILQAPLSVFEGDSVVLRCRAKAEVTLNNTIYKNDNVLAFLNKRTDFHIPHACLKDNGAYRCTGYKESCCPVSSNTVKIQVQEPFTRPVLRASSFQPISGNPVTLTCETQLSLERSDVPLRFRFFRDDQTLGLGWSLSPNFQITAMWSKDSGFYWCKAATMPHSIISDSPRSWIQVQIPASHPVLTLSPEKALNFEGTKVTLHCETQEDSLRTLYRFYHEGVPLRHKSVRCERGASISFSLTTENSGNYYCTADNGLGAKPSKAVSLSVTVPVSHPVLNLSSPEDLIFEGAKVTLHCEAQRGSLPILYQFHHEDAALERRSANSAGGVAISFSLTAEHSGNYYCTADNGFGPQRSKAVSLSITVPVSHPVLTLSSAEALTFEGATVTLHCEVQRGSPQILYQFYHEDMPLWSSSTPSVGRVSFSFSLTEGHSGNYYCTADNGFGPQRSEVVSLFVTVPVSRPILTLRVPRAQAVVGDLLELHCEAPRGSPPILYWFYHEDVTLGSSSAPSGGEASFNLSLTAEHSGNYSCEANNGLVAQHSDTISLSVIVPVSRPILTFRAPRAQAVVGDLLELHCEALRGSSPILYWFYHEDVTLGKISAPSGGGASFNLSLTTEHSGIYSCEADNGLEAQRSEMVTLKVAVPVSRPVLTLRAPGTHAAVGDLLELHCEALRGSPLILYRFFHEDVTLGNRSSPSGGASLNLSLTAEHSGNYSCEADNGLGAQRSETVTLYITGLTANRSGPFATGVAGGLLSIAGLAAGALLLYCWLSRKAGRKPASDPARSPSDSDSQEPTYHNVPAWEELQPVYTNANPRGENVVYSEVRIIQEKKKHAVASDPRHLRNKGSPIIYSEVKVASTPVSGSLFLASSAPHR
Protocol: Once selected, positive scFv clones are further tested for their binding to FcRL5 (e.g., human FcRL5) on live 3T3 cell surfaces by flow cytometry. Briefly, phage clones are incubated with 3T3 cells over-expressing FcRL5. The cells are washed and then incubated with a mouse anti-M13 coat protein mAb. Cells are washed again and labeled with a PE-horse anti-mouse Ig prior to flow cytometry.
Phage′ display against FcRL5 was performed to enrich for scFv phage clones that bind to FcRL5 specifically. Screening was carried out on FcRL5 overexpressing 3T3 cells or 3T3 cells expressing FcRL1, 2, 3, 4 or 6 as a negative control (FIG. 2).

[4] = biological target: T4, FcRL2, overexpressed on 3T3 cells (UniProt Q96LA5 20-508, limits assumed); assay: phage clone on 3T3-FcRL2 cells
T4 construct: whole, on cells
T4 sequence (looked up): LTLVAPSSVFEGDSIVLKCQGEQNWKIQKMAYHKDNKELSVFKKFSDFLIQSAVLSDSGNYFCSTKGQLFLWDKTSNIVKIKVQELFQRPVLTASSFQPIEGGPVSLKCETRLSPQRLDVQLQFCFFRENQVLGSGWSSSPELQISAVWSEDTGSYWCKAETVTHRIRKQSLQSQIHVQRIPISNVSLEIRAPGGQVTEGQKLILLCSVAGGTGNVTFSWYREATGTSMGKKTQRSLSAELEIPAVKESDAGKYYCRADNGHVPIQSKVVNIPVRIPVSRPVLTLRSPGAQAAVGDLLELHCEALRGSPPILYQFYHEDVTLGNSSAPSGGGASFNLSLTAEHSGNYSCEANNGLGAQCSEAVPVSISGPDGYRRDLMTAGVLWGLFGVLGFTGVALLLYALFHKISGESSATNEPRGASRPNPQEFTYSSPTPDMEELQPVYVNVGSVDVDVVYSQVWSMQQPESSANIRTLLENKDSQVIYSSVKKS

SLAMF9 protein = SLAMF9 protein (UniProt Q96A28 19-236, limits assumed); assay: phage clone on SLAMF9 protein
SLAMF9 protein, sequence (Q96A28 19-236 limits assumed): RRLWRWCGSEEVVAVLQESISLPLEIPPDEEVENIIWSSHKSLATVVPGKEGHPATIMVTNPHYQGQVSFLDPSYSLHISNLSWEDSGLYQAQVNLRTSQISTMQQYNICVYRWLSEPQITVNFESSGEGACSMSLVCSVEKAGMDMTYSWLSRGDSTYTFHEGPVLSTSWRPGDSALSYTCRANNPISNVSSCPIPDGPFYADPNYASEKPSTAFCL

B1: ET200-023 (scFv)
scFv: LPVLTQPPSVSVAPGKTARITCGGNNIGSKSVHWYQQKPGQAPVLVVYADSDRPSGIPERFSGSNSGNTATLTISRVEAGDEADYYCQVWDSSSYHNYVFGTGTKVTVLGSRGGGGSGGGGSGGGGSLEMAEVQLVQSGAEVKKPGASVKVSCKASGYTFTSYGISWVRQAPGQGLEWMGWISAYNGNTNYAQKLQGRVTMTTDTSTSTAYMELSSLRSEDTAMYYCARYWGFGVSDRWGQGTLVTVSSTSGQAGQHHHHHHGAYPYDVPDYAS
notes: screened as phage clone; entry is VL-linker-VH-His tag-HA tag
B1: no binding [1]; no binding [2]; binds [3]. B1: no binding [4]; no binding (SLAMF9 protein).

B2: ET200-019 (scFv)
scFv: NFMLTQPHSVSESPGKTVTISCTRSSGSIASNYVQWYQQRPGSAPTTVIYEDNQRPSGVPDRFSGSIDSSSNSASLTISGLKTEDEADYYCQSYDSSNSWVFGGGTKLTVLGSRGGGGSGGGGSGGGGSLEMAQVQLVQSGAEVKRPGSSVKVSCTASGGTFSSDAISWVRQAPGQGLEWMGGIIPMFGTANYAQKFQGRVTITADESTSTAYMELSSLRSEDTAVYYCAREGYYYPSAYLGSVLNDISSVYDEWGQGTLVTVSSTSGQAGQHHHHHHGAYPYDVPDYAS
notes: as for B1
B2: no binding [1]; no binding [2]; binds [3]. B2: no binding [4]; no binding (SLAMF9 protein).

B3: ET200-039 (scFv)
scFv: NFMLTQPHSVSESPGKTVTISCTRSSGSIASNYVQWYQQRPGSSPTTVIYEDNQRPSGVPDRFSGSIDSSSNSASLTISGLKTEDEADYYCQSYDSSNWVFGGGTKLTVLGSRGGGGSGGGGSGGGGSLEMAEVQLVQSGAEVKKPGSSVKVSCKASGGTFSSYAISWVRQAPGQGLEWMGGIIPIFGTANYAQKFQGRVTITADESTSTAYMELSSLRSEDTAVYYCARSNYYYNDYWGQGTLVTVSSTSGQAGQHHHHHHGAYPYDVPDYAS
notes: screened as phage clone; entry is VL-linker-VH-His tag-HA tag; also called ET200-39
B3: no binding [1]; no binding [2]; binds [3]. B3: no binding [4]; no binding (SLAMF9 protein).

B4: ET200-035 (scFv)
scFv: B3 scFv with S44A, S97T, E133Q, S231Y, Y235F
notes: as for B1
B4: no binding [1]; no binding [2]; binds [3]. B4: no binding [4]; no binding (SLAMF9 protein).

B5: ET200-026 (scFv)
scFv: B3 scFv with R24G, S44A, S231N, Y233H
notes: as for B1
B5: no binding [1]; no binding [2]; binds [3]. B5: no binding [4]; no binding (SLAMF9 protein).

B6: ET200-027 (scFv)
scFv: QSVLTQPPSVSGAPGQGVTIPCTGSSSNIGAGYDVHWYQQLPGTAPKLLIYGNNNRPSGVPDRFSGSRSGSSASLAITGLQAEDEADYYCQSYDSSLSDVVFGGGTKVTVLGSRGGGGSGGGGSGGGGSLEMAEVQLVQSGAEVKKPGATVKISCKVSGYTFTDYYMHWVQQAPGKGLEWMGLVDPEDGETIYAEKFQGRVTITADTSTDTAYMELSSLRSEDTAVYYCARYWSYSFDYLYMPEGNDWWGQGTLVTVSSTSGQAGQHHHHHHGAYPYDVPDYAS
notes: as for B1
B6: no binding [1]; no binding [2]; binds [3]. B6: no binding [4]; no binding (SLAMF9 protein).

B7: ET200-021 (scFv)
scFv: QSVLTQPPSVSAAPGQKVTISCSGSNSNIGNNYVSWYQQLPGTAPKLLIYDNNKRPSGIPDRFSGSRSGTSATLGITGLQTGDEADYYCGTWNTTVTPGYVFGTGTKVTVLGSRGGGGSGGGGSGGGGSLEMAEVQLVQSGAEVKKPGASVKVSCKASGYTFTSYGISWVRQAPGQGLEWMGWISAYNGNTNYAQKLQGRVTMTTDTSTSTAYMELRSLRSDDTAMYYCARSVYDLDTWGQGTLVTVSSTSGQAGQHHHHHHGAYPYDVPDYAS
notes: as for B1
B7: no binding [1]; no binding [2]; binds [3]. B7: no binding [4]; no binding (SLAMF9 protein).

B8: ET200-020 (scFv)
scFv: QSVVTQPPSVSAAPGQKVTISCSGSTSNIGNNDVSWYQQLPGTAPKLLIYDNNKRPSGIPDRFSGSKSGTSATLGITGLQTGDEADYYCGTWDSSVSASWVFGRGTKLTVLGSRGGGGSGGGGSGGGGSLEMAQVQLVQSGAEVKKPGASVKVSCKASGYTFTSYGISWVRQAPGQGLEWMGWISAYNGNTNYPQKLQGRVTMTTDPSTSTAYMELRSLRSDDTAVYYCARSMTSFDYWGQGTLVTVSSTSGQAGQHHHHHHGAYPYDVPDYAS
notes: as for B1
B8: no binding [1]; no binding [2]; binds [3]. B8: no binding [4]; no binding (SLAMF9 protein).

B9: ET200-022 (scFv)
scFv: QSVVTQPPSVSAAPGQKVTISCSGSSSNIGNNYVSWYQQLPGTAPKLLIYDNNKRPSGIPDRFSGSKSGTSATLGITGLQTGDEADYYCGTWDSSLGAPYVFGTGTKVTVLGSRGGGGSGGGGSGGGGSLEMAEVQLVQSWGGSEQPGRSLRLSCAASGFTFDDYAMHWVRQAPGKGLEWVSGISWNSGSIGYADSVKGRFTISRDNAKNSLYLQMNSLRAEDTAMYYCARYRQVGSAYDSWGQGTLVTVSSTSGQAGQHHHHHHGAYPYDVPDYAS
notes: as for B1
B9: no binding [1]; no binding [2]; binds [3]. B9: no binding [4]; no binding (SLAMF9 protein).

From patent publication US20210388081A1 (Memorial Sloan Kettering, published 2021)
